Target: Pyruvate kinase M2 (PKM2) (human (endogenous in HCT116 and RKO)) (UniProt P14618)
Assay: cross-linking

Sequence of Pyruvate kinase M2 (PKM2), P14618 1-531 (natural protein; other documents disagree on this pair) (P14618 whole entry): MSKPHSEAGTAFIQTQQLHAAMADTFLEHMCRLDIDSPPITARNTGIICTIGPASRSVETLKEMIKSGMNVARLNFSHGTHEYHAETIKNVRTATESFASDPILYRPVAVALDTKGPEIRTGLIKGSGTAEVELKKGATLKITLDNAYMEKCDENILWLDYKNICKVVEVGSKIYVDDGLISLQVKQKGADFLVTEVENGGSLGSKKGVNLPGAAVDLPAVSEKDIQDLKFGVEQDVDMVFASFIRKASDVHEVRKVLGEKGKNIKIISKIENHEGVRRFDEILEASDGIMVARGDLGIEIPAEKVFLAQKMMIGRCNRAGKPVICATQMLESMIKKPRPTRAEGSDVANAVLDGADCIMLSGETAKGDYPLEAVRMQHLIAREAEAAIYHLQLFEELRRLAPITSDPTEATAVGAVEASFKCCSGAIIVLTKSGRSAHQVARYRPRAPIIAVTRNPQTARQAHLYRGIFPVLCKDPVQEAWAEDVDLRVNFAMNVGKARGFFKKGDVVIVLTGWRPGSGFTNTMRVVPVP

Pyruvate kinase M2 (PKM2), P14618 1-531 (natural protein; other documents disagree on this pair)
stoichiometry N: 2

— article PMC11686999
